Data published in patent US20220153854A1 (Ablynx, published 2022).
Positions count from the first letter of the chain named.

How the values were obtained:
[1] = biological target: T1, membrane bound cyno OX40L on CHO-KI cells (cynomolgus monkey, UniProt G7NVH7 1-183); assay: cell-based or functional assay
T1 sequence: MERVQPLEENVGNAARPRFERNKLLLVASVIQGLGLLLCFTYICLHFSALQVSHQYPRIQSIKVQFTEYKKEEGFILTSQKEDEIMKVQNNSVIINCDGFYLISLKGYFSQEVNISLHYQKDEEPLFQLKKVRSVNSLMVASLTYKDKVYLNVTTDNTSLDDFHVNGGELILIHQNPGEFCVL

[2] = biological target: T2, membrane bound human OX40L on CHO-KI cells (human, UniProt P23510 1-183); assay: cell-based or functional assay
T2 sequence (looked up): T1 sequence with Q55R, E73K

[3] = biological target: T3, human OX40L (human, UniProt P23510 51-183); assay: SPR KD against parental F027300042 (15B07)
T3 construct: Protein in solution or immobilised (SPR, Gyrolab); construct not described; also called huOX40L; hOX40L
T3 sequence (looked up): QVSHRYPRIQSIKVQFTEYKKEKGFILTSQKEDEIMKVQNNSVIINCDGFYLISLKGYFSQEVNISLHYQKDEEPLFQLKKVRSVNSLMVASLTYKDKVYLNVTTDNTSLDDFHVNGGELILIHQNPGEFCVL

[4] = biological target: T4, cyno OX40L (cynomolgus monkey, UniProt G7NVH7 51-183); assay: SPR KD against parental F027300042 (15B07)
T4 construct: also called cyOX40L; cynomolgus monkey OX40L
T4 sequence: T3 sequence (looked up) with R5Q, K23E

[5] = biological target: T3, human OX40L; assay: SPR
[6] = biological target: T4, cyno OX40L; assay: SPR

IC50 (nM) PBMC assay cyno OX40L [1]: 7.58 nM
IC50 (nM) PBMC assay human OX40L [2]: 1.78 nM
Fold improved affinity vs parental [3]: 53 fold
Fold improved affinity vs parental [4]: 92 fold
Kd [5]: 85.3 pM
Kd [6]: 108 pM
B1: F027301552 (15B07AM) (VHH)
VHH: DVQLVESGGGVVQPGGSLRLSCAASRSIGRYDRMGWYRHRPGEPRELVATITGGSSINYGDSVKGRFTISIDNSKNTVYLQMNSLRPEDTALYYCNFNKYQISRDTWGQGTLVTVSS
